{"source": "the RNAGym collection of RNA variant scans (doi:10.7554/elife.80360)", "parents": {"B1": {"name": "Hairpin Ribozyme (parent)", "chain": "GUCCUCUUUCACGUGCGCGUGAAAGAGAGAAGUGAACCAGAGAAACACACGUUGUGGUAUAUUACCUGGUA"}}}
{"variants_of": "B1", "assay": "self-cleavage, relative activity (ratio to wild type); higher = more cleavage; co-transcriptional"}
{"variant": "C12A C65A", "self-cleavage": 0.787}
{"variant": "A11U U58G", "self-cleavage": 0.65}
{"variant": "A11U U58A", "self-cleavage": 0.523}
{"variant": "C12G U62A", "self-cleavage": 0.176}
{"variant": "C12G U62C", "self-cleavage": 0.235}
{"variant": "C12U A47G", "self-cleavage": 0.131}
{"variant": "C12U A47U", "self-cleavage": 0.194}
{"variant": "C12G G56U", "self-cleavage": 0.124}
{"variant": "C12G G56A", "self-cleavage": 0.14}
{"variant": "C12G G40A", "self-cleavage": 0.266}
{"variant": "G13A C66A", "self-cleavage": 0.173}
{"variant": "G13A C66U", "self-cleavage": 0.419}
{"variant": "C12U A61U", "self-cleavage": 0.133}
{"variant": "C12U A61G", "self-cleavage": 0.255}
{"variant": "C12G U58A", "self-cleavage": 0.734}
{"variant": "G13U A47U", "self-cleavage": 0.129}
{"variant": "G13U A47G", "self-cleavage": 0.143}
{"variant": "G13U A47C", "self-cleavage": 0.326}
{"variant": "G13U C38G", "self-cleavage": 0.136}
{"variant": "G13U A41G", "self-cleavage": 0.752}
{"variant": "G13U A41U", "self-cleavage": 1.15}
{"variant": "C12U C46U", "self-cleavage": 0.174}
{"variant": "C12G A22C", "self-cleavage": 0.518}
{"variant": "C12A U53C", "self-cleavage": 0.939}
{"variant": "G13U A49G", "self-cleavage": 0.483}
{"variant": "G13A G19C", "self-cleavage": 0.804}
{"variant": "G13A G19U", "self-cleavage": 0.825}
{"variant": "C12U G15U", "self-cleavage": 1.08}
{"variant": "C12U G15A", "self-cleavage": 0.687}
{"variant": "G13C U62G", "self-cleavage": 0.185}
{"variant": "G13C U62A", "self-cleavage": 0.143}
{"variant": "C12G C50A", "self-cleavage": 0.306}
{"variant": "G13A A45G", "self-cleavage": 0.161}
{"variant": "C12G G19U", "self-cleavage": 0.997}
{"variant": "C12G G19C", "self-cleavage": 1.24}
{"variant": "C12G G19A", "self-cleavage": 0.808}
{"variant": "C12U C37G", "self-cleavage": 0.27}
{"variant": "G13C G27C", "self-cleavage": 0.161}
{"variant": "C12A A47C", "self-cleavage": 0.329}
{"variant": "C12A G25A", "self-cleavage": 0.486}
{"variant": "C12A G25U", "self-cleavage": 0.559}
{"variant": "G13A A47U", "self-cleavage": 0.172}
{"variant": "G13A A43U", "self-cleavage": 0.144}
{"variant": "G13A A49U", "self-cleavage": 0.18}
{"variant": "G13A A49G", "self-cleavage": 0.5}
{"variant": "G13C G25U", "self-cleavage": 0.436}
{"variant": "G13C G25A", "self-cleavage": 0.448}
{"variant": "C12A U33G", "self-cleavage": 0.175}
{"variant": "C12G A24G", "self-cleavage": 0.778}
{"variant": "C12G A24C", "self-cleavage": 0.613}
{"variant": "G13A A24U", "self-cleavage": 0.627}
{"variant": "G13U A45U", "self-cleavage": 0.136}
{"variant": "C12U A36G", "self-cleavage": 1.17}
{"variant": "C12U A36U", "self-cleavage": 0.584}
{"variant": "G13A G57U", "self-cleavage": 0.205}
{"variant": "G13A C37A", "self-cleavage": 0.373}
{"variant": "G13A C50U", "self-cleavage": 0.373}
{"variant": "C12U U60C", "self-cleavage": 1.02}
{"variant": "C12U U60G", "self-cleavage": 0.504}
{"variant": "C12A A43C", "self-cleavage": 0.257}
{"variant": "C12A A43G", "self-cleavage": 0.116}
{"variant": "G13U A30C", "self-cleavage": 0.166}
{"variant": "G13C G21U", "self-cleavage": 0.49}
{"variant": "G13C G34C", "self-cleavage": 1.1}
{"variant": "G13C G34U", "self-cleavage": 1.1}
{"variant": "G13C C16G", "self-cleavage": 0.407}
{"variant": "C12A C18A", "self-cleavage": 0.812}
{"variant": "G13A U55C", "self-cleavage": 0.214}
{"variant": "C12A A41G", "self-cleavage": 0.736}
{"variant": "A11U U33A", "self-cleavage": 0.0768}
{"variant": "A11U U63A", "self-cleavage": 0.22}
{"variant": "G13U C37G", "self-cleavage": 0.384}
{"variant": "G13U C37A", "self-cleavage": 0.249}
{"variant": "G13U C37U", "self-cleavage": 0.443}
{"variant": "C12U U20G", "self-cleavage": 0.76}
{"variant": "A11U U14G", "self-cleavage": 0.536}
{"variant": "A11U U14C", "self-cleavage": 0.964}
{"variant": "C12U A44U", "self-cleavage": 0.0952}
{"variant": "C12U A44G", "self-cleavage": 0.201}
{"variant": "C12G G54A", "self-cleavage": 0.543}
{"variant": "G13C C50U", "self-cleavage": 0.281}
{"variant": "G13C C50A", "self-cleavage": 0.137}
{"variant": "C12G G13A", "self-cleavage": 0.851}
{"variant": "C12U U53C", "self-cleavage": 0.862}
{"variant": "C12G U70A", "self-cleavage": 0.728}
{"variant": "C12U G40U", "self-cleavage": 0.191}
{"variant": "A11U G56C", "self-cleavage": 0.087}
{"variant": "G13U A43G", "self-cleavage": 0.186}
{"variant": "G13U A43U", "self-cleavage": 0.127}
{"variant": "C12A U63C", "self-cleavage": 0.2}
{"variant": "G13A G15U", "self-cleavage": 1.1}
{"variant": "G13A G15C", "self-cleavage": 0.753}
{"variant": "G13A A59G", "self-cleavage": 0.104}
{"variant": "G13A U63C", "self-cleavage": 0.175}
{"variant": "G13A U63G", "self-cleavage": 0.0786}
{"variant": "C12A C16G", "self-cleavage": 0.671}
{"variant": "C12A C16U", "self-cleavage": 0.977}
{"variant": "G13A A64U", "self-cleavage": 0.258}
{"variant": "G13A A64C", "self-cleavage": 0.178}
{"variant": "C12G U60C", "self-cleavage": 1.04}
{"variant": "C12U C66G", "self-cleavage": 0.126}
{"variant": "C12U C66U", "self-cleavage": 0.514}
{"variant": "G13U A22U", "self-cleavage": 0.622}
{"variant": "G13U A22C", "self-cleavage": 0.533}
{"variant": "C12U U52G", "self-cleavage": 0.875}
{"variant": "C12U U52A", "self-cleavage": 0.92}
{"variant": "C12U U52C", "self-cleavage": 1.1}
{"variant": "C12U A30C", "self-cleavage": 0.193}
{"variant": "C12U A30U", "self-cleavage": 0.136}
{"variant": "C12A G40A", "self-cleavage": 0.237}
{"variant": "C12U U70A", "self-cleavage": 0.746}
{"variant": "C12U U70G", "self-cleavage": 0.659}
{"variant": "C12U A49U", "self-cleavage": 0.159}
{"variant": "C12U A49C", "self-cleavage": 0.169}
{"variant": "G13U A24G", "self-cleavage": 0.681}
{"variant": "G13C G51U", "self-cleavage": 0.61}
{"variant": "G13A G54U", "self-cleavage": 0.42}
{"variant": "G13A G54C", "self-cleavage": 0.346}
{"variant": "C12U G56U", "self-cleavage": 0.193}
{"variant": "C12U G56C", "self-cleavage": 0.137}
{"variant": "G13C A22G", "self-cleavage": 0.496}
{"variant": "C12A G57A", "self-cleavage": 0.255}
{"variant": "C12A G57U", "self-cleavage": 0.172}
{"variant": "G13A", "self-cleavage": 0.87}
{"variant": "G13U", "self-cleavage": 0.763}
{"variant": "G13C", "self-cleavage": 0.681}
{"variant": "C12A A23C", "self-cleavage": 0.762}
{"variant": "G13A C18A", "self-cleavage": 1.02}
{"variant": "C12G G17U", "self-cleavage": 0.627}
{"variant": "C12U G13U", "self-cleavage": 0.828}
{"variant": "C12U G13C", "self-cleavage": 0.791}
{"variant": "C12U G32A", "self-cleavage": 0.134}
{"variant": "C12A G54C", "self-cleavage": 0.389}
{"variant": "C12A G54U", "self-cleavage": 0.53}
{"variant": "G13A U62G", "self-cleavage": 0.106}
{"variant": "G13C U52G", "self-cleavage": 0.76}
{"variant": "G13C U52C", "self-cleavage": 0.646}
{"variant": "G13C C48U", "self-cleavage": 0.108}
{"variant": "G13A A61U", "self-cleavage": 0.136}
{"variant": "A11U U53C", "self-cleavage": 0.975}
{"variant": "A11U U53G", "self-cleavage": 0.69}
{"variant": "G13U A44C", "self-cleavage": 0.0986}
{"variant": "G13U A44G", "self-cleavage": 0.199}
{"variant": "G13C A64G", "self-cleavage": 0.448}
{"variant": "G13C A64U", "self-cleavage": 0.128}
{"variant": "C12A A28U", "self-cleavage": 0.34}
{"variant": "C12G G32U", "self-cleavage": 0.179}
{"variant": "C12G G25C", "self-cleavage": 0.489}
{"variant": "G13A G32A", "self-cleavage": 0.0965}
{"variant": "G13A G32C", "self-cleavage": 0.136}
{"variant": "A11U G69A", "self-cleavage": 0.402}
{"variant": "C12A G19A", "self-cleavage": 0.876}
{"variant": "C12A G19U", "self-cleavage": 0.995}
{"variant": "G13A A71G", "self-cleavage": 0.912}
{"variant": "G13A A71C", "self-cleavage": 1.36}
{"variant": "C12G U20C", "self-cleavage": 1.01}
{"variant": "G13A U70C", "self-cleavage": 0.615}
{"variant": "C12U A23C", "self-cleavage": 0.93}
{"variant": "G13C G15C", "self-cleavage": 0.541}
{"variant": "G13C G15A", "self-cleavage": 0.74}
{"variant": "C12G C37A", "self-cleavage": 0.159}
{"variant": "C12G A49U", "self-cleavage": 0.12}
{"variant": "G13C U53G", "self-cleavage": 0.245}
{"variant": "C12U G57C", "self-cleavage": 0.222}
{"variant": "G13C A71U", "self-cleavage": 0.41}
{"variant": "G13A G25U", "self-cleavage": 0.512}
{"variant": "C12G G42U", "self-cleavage": 0.343}
